From PMC12796453

Legend:
Assay in all cases: SPR
[1] = target: afucosylated A330W E269I KiH Rituximab IgG1 (human)
[2] = target: afucosylated agalactosylated KiH-A330W anti-DENV2 E protein IgG1 (C10) (human)
[3] = target: monoglycosylated monofucosylated IgG (human)
[4] = target: monoglycosylated bifucosylated IgG (human)
[5] = target: bifucosylated A330W E269I KiH Rituximab IgG1 (human)
[6] = target: bifucosylated A330W E269M KiH Rituximab IgG1 (human)
[7] = target: monofucosylated A330W E269I KiH Rituximab IgG1 (human)
[8] = target: monofucosylated A330W E269M KiH Rituximab IgG1 (human)

Work on “soluble human FcγRIIIA-F158 ectodomain (from UniProt P08637 17-208) (receptor)” yielded a Kd [1] of 159 nM, a Kd [2] of 39 nM and a Kd [3] of 554 nM. For the same substance, the Kd [4] was 1640 nM, the Kd [5] was 2070 nM and the Kd [6] was 1480 nM. For the same substance, the Kd [7] was 698 nM and the Kd [8] was 119 nM.
